Assay results published in patent US20200339702A1 (ULTRAHUMAN THIRTEEN, published 2020).

T1: rhesus monkey ERBB3 His tag, monomeric (rhesus monkey (Macaca mulatta), UniProt P21860 20-643 (human entry), limits assumed)
T1 chain: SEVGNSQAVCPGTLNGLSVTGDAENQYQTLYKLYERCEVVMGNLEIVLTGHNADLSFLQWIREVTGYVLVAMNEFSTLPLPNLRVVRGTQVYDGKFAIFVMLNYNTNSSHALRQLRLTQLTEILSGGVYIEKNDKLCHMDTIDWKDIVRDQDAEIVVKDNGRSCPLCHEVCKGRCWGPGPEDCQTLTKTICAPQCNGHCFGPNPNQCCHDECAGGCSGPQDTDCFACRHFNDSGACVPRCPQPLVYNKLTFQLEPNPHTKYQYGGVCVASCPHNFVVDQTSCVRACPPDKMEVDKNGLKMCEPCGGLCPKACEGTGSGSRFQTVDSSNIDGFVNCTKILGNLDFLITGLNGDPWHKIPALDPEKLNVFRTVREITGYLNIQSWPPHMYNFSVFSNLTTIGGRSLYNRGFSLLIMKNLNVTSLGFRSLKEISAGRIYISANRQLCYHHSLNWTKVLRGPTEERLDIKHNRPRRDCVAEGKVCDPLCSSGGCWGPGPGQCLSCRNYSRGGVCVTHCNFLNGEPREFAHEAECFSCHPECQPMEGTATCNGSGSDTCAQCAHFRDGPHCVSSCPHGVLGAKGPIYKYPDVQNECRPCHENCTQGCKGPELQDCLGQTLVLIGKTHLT


Experiments:
[1] = target: T1, rhesus monkey ERBB3 His tag, monomeric; experiment: SPR (Biacore), captured IgG, monomeric ERBB3-His analyte
[2] = target: T2, human ERBB3 His tagged, monomeric (human, UniProt P21860 20-643, biotinylated in the Alphascreen assays (sites not given)); experiment: Alphascreen competition in solution, competitor h24C05 IgG1null, biotinylated human ERBB3-His
T2 construct: Used unbiotinylated as Biacore analyte and biotinylated in Alphascreen; treated as one molecule; also called human ERBB3-His (Acrobiosystems); biotinylated monomeric human ERBB3
Procedure: The AlphaScreen assay (Perkin Elmer) was performed in a 25 μl final volume in 384-well white microtiter plates (Greiner). The reaction buffer contained 1×PBS pH 7.3 (Oxoid, Cat. nr. BR0014G) and 0.05% (v/v) Tween® 20 (Sigma, Cat. nr. P9416). Purified IgG samples were titrated in three fold serial dilutions starting at 100 nM final concentration and incubated with biotinylated human ERBB3-His (Acrobiosystems) at 1 nM final concentration for 20 minutes at room temperature. The parental IgG and the anti-human IgG1 Acceptor beads at were added and the mix was incubated for 1 hour at room temperature. Followed by addition of the Streptavidin Donor beads and incubation for 30 minutes at room temperature. The emission of light was measured in the EnVision multilabel plate reader (Perkin Elmer) and analysed using the EnVision manager software. Values were reported as Counts Per Second (CPS) and corrected for crosstalk.

[3] = target: T2, human ERBB3 His tagged, monomeric; experiment: SPR (Biacore)
Procedure: Affinity (KD) of purified IgGs was determined via SPR with antigen in-solution on a Biacore® 3000 (GE). A mouse anti-human antibody (CH1 specific) was immobilized on a CM5 Sensor Chip to a level of 2000 RU in acetate buffer at pH 4.5 using amine coupling following the Wizard instructions for two channels. One channel was used for background signal correction. The standard running buffer HBS-EP pH 7.4 was used. Regeneration was performed with a single injection of 10 μl of 10 mM Glycine at pH 1.5 at […]. IgG samples were injected for 2 minutes at 50 nM at 30 μl/min followed by an off-rate of 60 seconds. The monomeric antigen (human ERBB3 His tagged or rhesus monkey ERBB3 His tag) was injected in two fold serial dilutions from 3 nM down to 0.2 nM, for 2 minutes at 30 μl/min followed by an off-rate of 300 seconds. The obtained sensorgrams were analysed using the Biacore® 3000 evaluation (BlAevaluation) software. The KD was calculated by simultaneous fitting of the association and dissociation phases to a 1:1 Langmuir binding model.

Row | Kd [1] | koff [1] | kon [1] | IC50 (read off the curve) [2] | fold loss of KD against clone MH5 [3] | Binder
1 | 0.69 nM | 0.0074 s⁻¹ | 1.1e+07 M⁻¹ s⁻¹ | – | – | 09D12 IgG1null (antibody, V domains shown, Human IgG1null and human Ckappa) VH: QVQLVESGGGLVKPGGSLRLSCAASGFTFSDYGMSWIRQAPGKGLEWVSTISDGGSYTYYADSVKGRFTISRDNAKNSLYLQMNSLRAEDTAVYYCAREYGDYDGFDYWGQGTLVTVSS VL: DIQMTQSPSSLSASVGDRVTITCRASQSISSYLNWYQQKPGKAPKLLIYAASSLDSGVPSRFSGSGSGTDFTLTISSLQPEDFATYYCLQYDSTPLTFGGGTKVEIK
2 | – | – | – | ~5 nM | ~2 fold | TTP IgG1null (antibody, V domains shown, Designer clone; Human IgG1null and human Ckappa; also called Total Theoretically Possible clone) VH: QVQLVESGGGLVKPGGSLRLSCAASGFTFSDYGMSWIRQAPGKGLEWVSTISDSGSTIYYADSVKGRFTISRDNAKNSLYLQMNSLRAEDTAVYYCAREYGDYDGFDYWGQGTLVTVSS VL: DIQMTQSPSSLSASVGDRVTITCRASQSISSYLNWYQQKPGKAPKLLIYAASSLQSGVPSRFSGSGSGTDFTLTISSLQPEDFATYYCLQYDSTPLTFGGGTKVEIK
